Source: US20150203575A1 (Genentech, published 2015)
Read-outs that look alike come from different tables or passages of the source.

T1: MAG expressed on cells (human, UniProt P20916 20-626)
T1 construct: Clone of the Origene human cDNA library; also called Myelin associated glycoprotein; SIGLEC4A
T1 sequence: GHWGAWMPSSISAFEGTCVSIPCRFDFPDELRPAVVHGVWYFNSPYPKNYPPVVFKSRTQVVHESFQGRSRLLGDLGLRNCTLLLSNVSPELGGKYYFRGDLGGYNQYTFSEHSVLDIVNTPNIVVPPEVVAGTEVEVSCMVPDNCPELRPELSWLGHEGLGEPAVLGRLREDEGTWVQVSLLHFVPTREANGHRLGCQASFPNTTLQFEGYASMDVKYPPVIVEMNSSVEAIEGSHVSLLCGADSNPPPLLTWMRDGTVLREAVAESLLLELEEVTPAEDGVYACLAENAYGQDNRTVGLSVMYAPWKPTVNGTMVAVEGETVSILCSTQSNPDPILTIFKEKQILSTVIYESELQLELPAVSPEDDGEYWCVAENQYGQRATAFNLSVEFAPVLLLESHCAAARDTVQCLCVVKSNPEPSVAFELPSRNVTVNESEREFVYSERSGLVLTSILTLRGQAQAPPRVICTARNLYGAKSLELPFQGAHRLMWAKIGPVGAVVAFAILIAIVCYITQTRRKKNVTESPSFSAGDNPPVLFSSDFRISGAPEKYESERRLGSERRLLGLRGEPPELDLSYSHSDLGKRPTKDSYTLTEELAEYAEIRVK

T2: CLEC4G expressed on cells (human, UniProt Q6UXB4 1-293)
T2 construct: Clone of the Origene human cDNA library; also called C type lectin superfamily 4 member G
T2 sequence: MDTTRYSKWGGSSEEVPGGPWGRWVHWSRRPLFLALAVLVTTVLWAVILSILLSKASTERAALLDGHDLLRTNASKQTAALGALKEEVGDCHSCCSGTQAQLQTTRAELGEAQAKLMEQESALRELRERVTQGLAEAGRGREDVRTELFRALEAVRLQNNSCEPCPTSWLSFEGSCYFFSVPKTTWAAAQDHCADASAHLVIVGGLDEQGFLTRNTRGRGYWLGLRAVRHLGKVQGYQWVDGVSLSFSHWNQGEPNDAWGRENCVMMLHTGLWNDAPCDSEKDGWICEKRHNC

T3: IL-2Ra expressed on cells (human, UniProt P01589 22-272)
T3 construct: Clone of the Origene human cDNA library; also called Interleukin 2 receptor alpha
T3 sequence: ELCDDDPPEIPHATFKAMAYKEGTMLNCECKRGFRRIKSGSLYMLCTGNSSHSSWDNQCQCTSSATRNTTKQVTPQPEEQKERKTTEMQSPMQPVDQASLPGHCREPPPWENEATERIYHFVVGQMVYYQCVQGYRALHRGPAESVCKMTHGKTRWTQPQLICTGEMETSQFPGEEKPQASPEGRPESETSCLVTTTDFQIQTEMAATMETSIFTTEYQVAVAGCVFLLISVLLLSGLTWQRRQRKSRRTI

T4: BR3 expressed on cells (human, UniProt Q96RJ3 1-184)
T4 construct: Clone of the Origene human cDNA library
T4 sequence: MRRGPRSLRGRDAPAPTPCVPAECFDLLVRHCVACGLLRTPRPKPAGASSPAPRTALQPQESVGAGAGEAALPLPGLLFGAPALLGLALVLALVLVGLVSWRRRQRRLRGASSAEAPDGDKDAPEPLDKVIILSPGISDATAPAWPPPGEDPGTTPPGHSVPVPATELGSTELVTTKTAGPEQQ

B1: mPILRα-Fc (Fc fusion)
chain: not shown
notes: also called mouse PILRα-Fc; WT mPILRα-Fc; not shown: Fc of mouse IgG2a (PILRα-mIgG2a, called PILRα-Fc)
B2: mPILRαR133A-Fc (Fc fusion)
chain: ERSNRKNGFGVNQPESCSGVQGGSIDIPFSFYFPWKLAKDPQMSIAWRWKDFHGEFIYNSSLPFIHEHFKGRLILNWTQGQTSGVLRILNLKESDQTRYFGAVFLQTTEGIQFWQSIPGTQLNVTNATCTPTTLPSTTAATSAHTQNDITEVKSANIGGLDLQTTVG
notes: Arg mutant of mPILRα-Fc; also called mPILRα133A-Fc; variant mPILRα (R133A); not shown: Fc of mouse IgG2a (PILRα-mIgG2a, called PILRα-Fc)

Experiments:
MAG expressed on cells [1] = biological target: T1, MAG expressed on cells; test: flow cytometry, transfected 293T cells, 50 µg/ml
[2] = biological target: T5, LRRTM4 expressed on cells (human, UniProt Q86VH4 31-590); test: flow cytometry, transfected 293T cells, 50 µg/ml
T5 construct: Clone of the Origene human cDNA library; also called Leucine rich repeat transmembrane neuronal 4

MAG expressed on cells [3] = biological target: T1, MAG expressed on cells; test: flow cytometry, transfected 293T cells
[4] = biological target: T2, CLEC4G expressed on cells; test: flow cytometry, transfected 293T cells, 50 µg/ml
[5] = biological target: T3, IL-2Ra expressed on cells; test: flow cytometry, transfected 293T cells, 2 µg/ml
MAG expressed on cells [6] = biological target: T1, MAG expressed on cells; test: flow cytometry, transfected 293T cells, 2 µg/ml
[7] = biological target: T5, LRRTM4 expressed on cells; test: flow cytometry, transfected 293T cells, 2 µg/ml
[8] = biological target: T5, LRRTM4 expressed on cells; test: flow cytometry, transfected 293T cells, 2 µg/ml; remark: listed apart in the source
[9] = biological target: T6, human COLEC12 expressed on cells (human, UniProt Q5KU26 1-742); test: flow cytometry, transfected 293T cells, 2 µg/ml
T6 construct: also called hCOLEC12; C-terminal his tagged hCOLEC12

[10] = biological target: T2, CLEC4G expressed on cells; test: flow cytometry, transfected 293T cells, 2 µg/ml
[11] = biological target: T5, LRRTM4 expressed on cells; test: flow cytometry, transfected 293T cells, 50 µg/ml; remark: listed apart in the source
[12] = biological target: T6, human COLEC12 expressed on cells; test: flow cytometry, transfected 293T cells, 2 µg/ml; remark: listed apart in the source
[13] = biological target: T2, CLEC4G expressed on cells; test: flow cytometry, transfected 293T cells, 2 µg/ml; remark: listed apart in the source
[14] = biological target: T5, LRRTM4 expressed on cells; test: flow cytometry, transfected 293T cells
PSS8 expressed on cells = biological target: T7, PSS8 expressed on cells (human, UniProt Q16651 30-343); test: flow cytometry, transfected 293T cells
T7 construct: Clone of the Origene human cDNA library; also called Protease serine 8; prostasin

BR3 expressed on cells = biological target: T4, BR3 expressed on cells; test: flow cytometry, transfected 293T cells
[15] = biological target: T3, IL-2Ra expressed on cells; test: flow cytometry, transfected 293T cells

T5 sequence (Q86VH4 31-590 limits assumed): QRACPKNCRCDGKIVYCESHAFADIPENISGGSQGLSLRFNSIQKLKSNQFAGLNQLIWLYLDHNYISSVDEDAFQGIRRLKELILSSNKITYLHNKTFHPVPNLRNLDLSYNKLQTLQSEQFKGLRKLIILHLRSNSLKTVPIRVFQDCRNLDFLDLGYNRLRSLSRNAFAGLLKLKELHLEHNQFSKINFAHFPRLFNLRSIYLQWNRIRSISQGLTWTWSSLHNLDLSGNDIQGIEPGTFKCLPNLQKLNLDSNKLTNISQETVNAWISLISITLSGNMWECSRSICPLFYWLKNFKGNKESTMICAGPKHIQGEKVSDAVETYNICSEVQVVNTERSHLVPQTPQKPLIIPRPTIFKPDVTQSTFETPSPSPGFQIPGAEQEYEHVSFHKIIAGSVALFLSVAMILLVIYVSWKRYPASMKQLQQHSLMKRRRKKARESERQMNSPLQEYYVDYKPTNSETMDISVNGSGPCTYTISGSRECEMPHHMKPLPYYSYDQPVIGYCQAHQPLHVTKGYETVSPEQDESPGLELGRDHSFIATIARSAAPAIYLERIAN
T6 sequence (Q5KU26 whole entry S522P/G606S): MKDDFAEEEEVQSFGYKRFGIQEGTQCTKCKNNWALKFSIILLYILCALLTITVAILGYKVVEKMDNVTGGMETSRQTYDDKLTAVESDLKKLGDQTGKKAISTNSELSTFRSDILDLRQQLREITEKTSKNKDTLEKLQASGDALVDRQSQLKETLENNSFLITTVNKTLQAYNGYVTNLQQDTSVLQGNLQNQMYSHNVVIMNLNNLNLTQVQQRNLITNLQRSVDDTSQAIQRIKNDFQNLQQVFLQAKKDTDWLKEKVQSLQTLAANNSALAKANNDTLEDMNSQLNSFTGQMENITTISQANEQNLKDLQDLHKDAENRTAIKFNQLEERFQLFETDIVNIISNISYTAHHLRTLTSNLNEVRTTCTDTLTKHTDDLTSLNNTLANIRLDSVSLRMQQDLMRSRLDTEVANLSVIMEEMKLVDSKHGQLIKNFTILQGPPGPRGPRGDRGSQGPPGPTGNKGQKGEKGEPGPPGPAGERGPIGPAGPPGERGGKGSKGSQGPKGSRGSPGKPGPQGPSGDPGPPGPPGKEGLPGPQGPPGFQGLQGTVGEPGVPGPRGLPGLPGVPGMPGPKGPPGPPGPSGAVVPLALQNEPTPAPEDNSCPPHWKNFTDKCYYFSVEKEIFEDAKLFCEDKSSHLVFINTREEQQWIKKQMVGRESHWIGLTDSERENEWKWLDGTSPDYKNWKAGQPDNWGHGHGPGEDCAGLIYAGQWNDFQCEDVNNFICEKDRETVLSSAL
T7 sequence (Q16651 30-343 limits assumed): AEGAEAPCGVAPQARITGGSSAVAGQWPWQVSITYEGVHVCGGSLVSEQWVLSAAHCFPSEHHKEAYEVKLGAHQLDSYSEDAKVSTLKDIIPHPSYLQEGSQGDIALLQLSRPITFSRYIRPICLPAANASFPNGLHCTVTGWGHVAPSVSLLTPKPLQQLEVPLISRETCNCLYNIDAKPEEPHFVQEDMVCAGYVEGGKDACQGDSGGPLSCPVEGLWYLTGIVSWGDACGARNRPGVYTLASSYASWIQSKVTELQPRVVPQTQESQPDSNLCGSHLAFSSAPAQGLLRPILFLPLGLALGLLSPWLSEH

Binder	% cells in lower right quadrant (MAG expressed on cells [1]) [%]	% cells in lower right quadrant [2] [%]	binding result (MAG expressed on cells [3])	% cells in lower right quadrant [4] [%]	% cells in lower right quadrant [5] [%]	% cells in lower right quadrant (MAG expressed on cells [6]) [%]	% cells in lower right quadrant [7] [%]	% cells in lower right quadrant [8] [%]	% cells in lower right quadrant [9] [%]	% cells in lower right quadrant [10] [%]	% cells in lower right quadrant [11] [%]	% cells in lower right quadrant [12] [%]	% cells in lower right quadrant [13] [%]	binding result [14]	binding result (PSS8 expressed on cells)	binding result (BR3 expressed on cells)	binding result [15]
B1	0.55	16.6	no binding (tested: 50 µg/ml)	85.5	14.1	0.039	2.68	2.68	0.082	69.9	16.6	0.082	69.9				
B2	0	0.019	no binding (tested: 50 µg/ml)	0.045		0	0.025	0.025	0.014	0.044	0.019	0.014	0.044	no binding (tested: 50 µg/ml)	no binding (tested: 50 µg/ml)	no binding (tested: 50 µg/ml)	no binding (tested: 50 µg/ml)
